Results reported in IntAct's records for PubMed 17986458.

Molecular target: VHL, P40337-3

effect of a mutation on the interaction | Substance
disrupting interaction | Diacylglycerol kinase iota (Homo sapiens), O75912 P147A;P895A
disrupting interaction | Diacylglycerol kinase iota (Homo sapiens), O75912 P895A
